{"source": "paper PMC3359993", "about": "“Polydnavirus Ank Proteins Bind NF-κB Homodimers and Inhibit Processing of Relish” (PLoS Pathogens, 2012)", "binders": {"B1": {"name": "Relish, truncated (RHD, NLS and 20 additional C-terminal residues), StrepTagII-tagged (domain or fragment)", "chain": "KHVPQLRIVEQPVEKFRFRYKSEMHGTHGSLNGANSKRTPKTFPEVTLCNYDGPAVIRCSLFQTNLDSPHSHQLVVRKDDRDVCDPHDLHVSKERGYVAQFINMGIIHTAKKYIFEELCKKKQDRLVFQMNRRELSHKQLQELHQETEREAKDMNLNQVRLCFEAFKIEDNGAWVPLAPPVYSNAINNRKSAQTGELRIVRLSKPTGGVMGNDELILLVEKVSKKNIKVRFFEEDEDGETVWEAYAKFRESDVHHQYAIVCQTPPYKDKDVDREVNVYIELIRPSDDERSFPALPFRYKPRSVIVSRKRRRTGSSANSSSSGTESSNNSLD", "modifications": "Limits come from the Table S1 cactus primers. The forward primer, after the LIC extension …, encodes WEQFYQQN. The reverse primer encodes DTKMYDRF followed by a stop. Positions were …"}, "B2": {"name": "Dif, truncated (RHD, NLS and 20 additional C-terminal residues), StrepTagII-tagged (domain or fragment)", "chain": "PHLRIVEEPTSNIIRFRYKCEGRTAGSIPGMNSSSETGKTFPTIEVCNYDGPVIIVVSCVTSDEPFRQHPHWLVSKEEADACKSGIYQKKLPPEERRLVLQKVGIQCAKKLEMRDSLVERERRNIDPFNAKFDHKDQIDKINRYELRLCYQAFITVGNSKVPLDPIVSSPIYGKSSELTITRLCSCAATANGGDEIIMLCEKIAKDDIEVRFYETDKDGRETWFANAEFQPTDVFKQMAIAFKTPRYRNTEITQSVNVELKLVRPSDGATSAPLPFEYYPNPELLTKHNRRVAQKTVESLKRSLMSTNLHP", "modifications": "homodimer by gel filtration; StrepTagII left out. Limits: RHD start 78 and NLS end 368 from UniProt features, plus 20 residues; exact limits are only in Figure 1A"}, "B3": {"name": "Dif, truncated (RHD, NLS and 20 additional C-terminal residues), StrepTagII-tagged (domain or fragment)", "chain": "B2 chain", "modifications": "homodimer by gel filtration; StrepTagII left out. Limits: RHD start 78 and NLS end 368 from UniProt features, plus 20 residues; exact limits are only in Figure 1A / homodimer by gel filtration …"}, "B4": {"name": "Dorsal, truncated (RHD, NLS and 20 additional C-terminal residues), StrepTagII-tagged (domain or fragment)", "chain": "PYVKITEQPAGKALRFRYECEGRSAGSIPGVNSTPENKTYPTIEIVGYKGRAVVVVSCVTKDTPYRPHPHNLVGKEGCKKGVCTLEINSETMRAVFSNLGIQCVKKKDIEAALKAREEIRVDPFKTGFSHRFQPSSIDLNSVRLCFQVFMESEQKGRFTSPLPPVVSEPIFDKKAMSDLVICRLCSCSATVFGNTQIILLCEKVAKEDISVRFFEEKNGQSVWEAFGDFQHTDVHKQTAITFKTPRYHTLDITEPAKVFIQLRRPSDGVTSEALPFEYVPMDSDPAHLRRKRQKTGGDPMHLLLQQQQKQQLQN", "modifications": "Limits come from the Table S1 cactus primers. The forward primer, after the LIC extension …, encodes WEQFYQQN. The reverse primer encodes DTKMYDRF followed by a stop. Positions were …"}, "B5": {"name": "Cactus, truncated form consisting of its ankyrin repeat domain, N-terminal His tag (domain or fragment)", "chain": "WEQFYQQNDDGDTPLHLACISGSVDVVAALIRMAPHPCLLNIQNDVAQTPLHLAALTAQPNIMRILLLAGAEPTVRDRHGNTALHLSCIAGEKQCVRALTEKFGATEIHEAHRQYGHRSNDKAVSSLSYACLPADLEIRNYDGERCVHLAAEAGHIDILRILVSHGADINAREGKSGRTPLHIAIEGCNEDLANFLLDECEKLNLETATYAGLTAYQFACIMNKSRMQNILEKRGAETVTPPDSDYDSSDIEDLDDTKMYDRF", "modifications": "Limits come from the Table S1 cactus primers. The forward primer, after the LIC extension …, encodes WEQFYQQN. The reverse primer encodes DTKMYDRF followed by a stop. Positions were …"}, "B6": {"name": "Dif, truncated (RHD, NLS and 20 additional C-terminal residues), N-terminal thioredoxin fusion (domain or fragment)", "chain": "PHLRIVEEPTSNIIRFRYKCEGRTAGSIPGMNSSSETGKTFPTIEVCNYDGPVIIVVSCVTSDEPFRQHPHWLVSKEEADACKSGIYQKKLPPEERRLVLQKVGIQCAKKLEMRDSLVERERRNIDPFNAKFDHKDQIDKINRYELRLCYQAFITVGNSKVPLDPIVSSPIYGKSSELTITRLCSCAATANGGDEIIMLCEKIAKDDIEVRFYETDKDGRETWFANAEFQPTDVFKQMAIAFKTPRYRNTEITQSVNVELKLVRPSDGATSAPLPFEYYPNPELLTKHNRRVAQKTVESLKRSLMSTNLHPSKQV"}}, "key": {"[1]": {"molecular_target": "T1, Cactus, truncated form consisting of its ankyrin repeat domain, N-terminal His tag (Drosophila melanogaster)", "T1 chain": "B5 chain", "assay": "SPR; Biacore 3000, room temperature; IkB or Ank immobilised on CM5 by amine coupling (about 5500 RU); Rel homodimer as analyte, kinetic titration, five doubling injections (typically 160 nM to 2.56 uM), 60 or 90 s, 30 uL/min; 10 mM HEPES pH 7.4, 150 mM NaCl, 3.4 mM EDTA, 0.005% P20; 1:1 Langmuir fit", "conditions": "both partners purified"}, "[2]": {"molecular_target": "T2, Rel-49, the C-terminal IkB domain of Relish, N-terminal StrepTagII and C-terminal His tag (Drosophila melanogaster)", "T2 construct": "Rel-49, the C-terminal IkB fragment that is left after cleavage of compound Relish (Rel-110), Drosophila, GenBank AAF54333; Cloned without a stop codon into pET51-EK-LIC; source: E. coli BL21 (DE3), purified", "T2 sequence (Q94527 whole entry, looked up)": "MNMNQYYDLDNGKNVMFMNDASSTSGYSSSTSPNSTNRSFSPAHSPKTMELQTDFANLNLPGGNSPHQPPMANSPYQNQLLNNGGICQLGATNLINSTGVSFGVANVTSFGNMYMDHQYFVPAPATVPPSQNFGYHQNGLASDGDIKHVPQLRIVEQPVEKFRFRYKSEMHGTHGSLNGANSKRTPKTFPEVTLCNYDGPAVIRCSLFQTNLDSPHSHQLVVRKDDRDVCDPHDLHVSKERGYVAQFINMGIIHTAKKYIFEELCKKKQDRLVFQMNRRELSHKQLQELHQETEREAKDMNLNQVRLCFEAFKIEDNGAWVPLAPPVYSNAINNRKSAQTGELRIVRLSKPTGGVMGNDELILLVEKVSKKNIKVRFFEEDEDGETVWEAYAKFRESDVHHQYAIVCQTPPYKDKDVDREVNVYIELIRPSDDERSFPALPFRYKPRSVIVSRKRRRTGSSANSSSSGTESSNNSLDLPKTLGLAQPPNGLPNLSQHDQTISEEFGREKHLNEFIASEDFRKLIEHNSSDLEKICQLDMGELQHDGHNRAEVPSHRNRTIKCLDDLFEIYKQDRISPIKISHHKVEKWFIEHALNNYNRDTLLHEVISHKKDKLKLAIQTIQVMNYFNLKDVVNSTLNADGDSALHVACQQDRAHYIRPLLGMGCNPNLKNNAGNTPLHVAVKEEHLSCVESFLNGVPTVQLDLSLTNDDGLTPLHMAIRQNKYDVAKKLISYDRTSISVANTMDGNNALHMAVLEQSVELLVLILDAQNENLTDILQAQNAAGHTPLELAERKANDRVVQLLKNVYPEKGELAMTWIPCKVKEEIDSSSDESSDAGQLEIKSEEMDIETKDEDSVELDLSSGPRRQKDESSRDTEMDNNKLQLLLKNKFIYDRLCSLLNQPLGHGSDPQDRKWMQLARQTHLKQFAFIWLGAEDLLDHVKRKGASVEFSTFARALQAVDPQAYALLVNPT", "assay": "SPR; Biacore 3000, room temperature; IkB or Ank immobilised on CM5 by amine coupling (about 5500 RU); Rel homodimer as analyte, kinetic titration, five doubling injections (typically 160 nM to 2.56 uM), 60 or 90 s, 30 uL/min; 10 mM HEPES pH 7.4, 150 mM NaCl, 3.4 mM EDTA, 0.005% P20; 1:1 Langmuir fit", "conditions": "both partners purified"}, "[3]": {"molecular_target": "T3, Ank-H4 of Microplitis demolitor bracovirus, full length, N-terminal His tag (Microplitis demolitor bracovirus (MdBV))", "T3 construct": "Ank-H4, Microplitis demolitor bracovirus (MdBV), GenBank AY875685; consists of only an ankyrin repeat domain; amplified from MdBV genomic DNA; pET-30-EK-LIC; source: E. coli BL21 (DE3), purified (Ni-NTA); not shown: His6, N-terminal, kept", "T3 sequence (Q5I144 whole entry, the tested form may be a part)": "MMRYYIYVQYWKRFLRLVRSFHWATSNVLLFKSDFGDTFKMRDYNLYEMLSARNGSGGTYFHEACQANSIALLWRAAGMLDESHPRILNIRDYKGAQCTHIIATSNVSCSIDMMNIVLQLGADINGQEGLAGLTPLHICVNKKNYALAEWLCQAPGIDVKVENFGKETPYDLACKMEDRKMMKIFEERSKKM", "assay": "SPR; Biacore 3000, room temperature; IkB or Ank immobilised on CM5 by amine coupling (about 5500 RU); Rel homodimer as analyte, kinetic titration, five doubling injections (typically 160 nM to 2.56 uM), 60 or 90 s, 30 uL/min; 10 mM HEPES pH 7.4, 150 mM NaCl, 3.4 mM EDTA, 0.005% P20; 1:1 Langmuir fit", "conditions": "both partners purified"}, "[4]": {"molecular_target": "T4, Dif, truncated (RHD, NLS and 20 additional C-terminal residues), StrepTagII-tagged (Drosophila melanogaster)", "T4 chain": "B2 chain", "assay": "SEC; gel filtration of each purified recombinant protein, compared with molecular mass standards", "conditions": "both partners purified"}, "[5]": {"molecular_target": "T4, Dif, truncated (RHD, NLS and 20 …)", "assay": "SPR; Biacore 3000, room temperature; Dif immobilised on CM5 by amine coupling, Cactus as analyte (Table 1); kinetic titration; 10 mM HEPES pH 7.4, 150 mM NaCl, 3.4 mM EDTA, 0.005% P20; 1:1 Langmuir fit", "conditions": "both partners purified"}, "[6]": {"molecular_target": "the molecule itself", "assay": "SEC; gel filtration of each purified recombinant protein, compared with molecular mass standards"}}, "data": [{"binder": "B1", "values": [{"measurement": "Kd", "setting": "[1]", "result": 2190, "unit": "nM"}, {"measurement": "koff", "setting": "[1]", "result": 0.00241, "unit": "s⁻¹"}, {"measurement": "kon", "setting": "[1]", "result": 1100, "unit": "M⁻¹ s⁻¹"}]}, {"binder": "B2", "values": [{"measurement": "Kd", "setting": "[2]", "result": 1840, "unit": "nM"}, {"measurement": "koff", "setting": "[2]", "result": 0.000966, "unit": "s⁻¹"}, {"measurement": "kon", "setting": "[2]", "result": 524, "unit": "M⁻¹ s⁻¹"}, {"measurement": "Kd", "setting": "[3]", "result": 581, "unit": "nM"}, {"measurement": "koff", "setting": "[3]", "result": 0.00384, "unit": "s⁻¹"}, {"measurement": "kon", "setting": "[3]", "result": 6620, "unit": "M⁻¹ s⁻¹"}]}, {"binder": "B3", "values": [{"measurement": "stoichiometry N", "setting": "[4]", "result": 2}]}, {"binder": "B4", "values": [{"measurement": "Kd", "setting": "[1]", "result": 195, "unit": "nM"}, {"measurement": "koff", "setting": "[1]", "result": 0.00193, "unit": "s⁻¹"}, {"measurement": "kon", "setting": "[1]", "result": 9890, "unit": "M⁻¹ s⁻¹"}]}, {"binder": "B5", "values": [{"measurement": "Kd", "setting": "[5]", "result": 110, "unit": "nM"}, {"measurement": "koff", "setting": "[5]", "result": 0.00578, "unit": "s⁻¹"}, {"measurement": "kon", "setting": "[5]", "result": 52500, "unit": "M⁻¹ s⁻¹"}]}, {"binder": "B6", "values": [{"measurement": "stoichiometry N", "setting": "[6]", "result": 2}]}]}
